Target: human CD40 receptor (hCD40) (human, UniProt P25942 21-277)
Assay: BLI

human CD40 receptor (hCD40), sequence (P25942 21-277): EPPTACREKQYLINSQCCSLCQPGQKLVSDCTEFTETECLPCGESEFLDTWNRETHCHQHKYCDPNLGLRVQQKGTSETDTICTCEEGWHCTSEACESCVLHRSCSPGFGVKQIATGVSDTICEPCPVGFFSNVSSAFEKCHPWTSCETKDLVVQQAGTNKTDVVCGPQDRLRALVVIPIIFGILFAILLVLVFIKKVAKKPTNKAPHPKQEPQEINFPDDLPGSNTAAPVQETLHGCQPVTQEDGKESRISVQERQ

B1: DARPin WT_(CD40) binding the human CD40 receptor (designed binder)
chain: GSDLGKKLLQAARAGQLDEVRELLKAGADVNAKDTWGFTPLHIAAESGHLEIVEVLLKAGADVNAKDVQGRTPLHIAAHSGHLEIVEVLLKAGADVNAKDFRGWTPLHLAAWSGHLEIVEILLKAGADVNAQDKSGKTPADLAARAGHQDIAEVLQKAA
Question: How did the Kd turn out when B1 was run?
Answer: 288 nM

Source: PMC12087824 (2025)
